Experiment [1] concerns the target T1, rat TIMP-1 (rat, UniProt P30120 24-217). As to the kind of experiment: SPR (BIAcore), TIMP-1 coupled to chip, monovalent Fab. As for the experimental part:
For affinity determination, monomeric fractions of affinity and SEC purified Fab fragments or purified IgG1 molecules were used. All experiments were conducted in HBS buffer at a flow rate of 20 μl/min at 25° C. on a BIAcore™ instrument. Antigens in 100 mM sodium acetate pH 5.0 were coupled to a CM 5 sensor chip using standard EDC-NHS coupling chemistry. […] All sensograms were fitted globally using BIA evaluation software. For monovalent Fab fragments a monovalent fit (Langmuir binding) and for IgGs a bivalent fit was applied.

Experiment [2] has as its target T1, rat TIMP-1. The experiment is described as follows: cell-based or functional assay.

T1 sequence (P30120 24-217 limits assumed): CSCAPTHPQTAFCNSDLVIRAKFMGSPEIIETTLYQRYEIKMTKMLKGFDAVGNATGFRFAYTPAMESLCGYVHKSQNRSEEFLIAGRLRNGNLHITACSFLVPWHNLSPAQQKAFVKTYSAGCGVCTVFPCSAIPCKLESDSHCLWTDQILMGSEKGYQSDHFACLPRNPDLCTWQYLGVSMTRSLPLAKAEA

B1: MS-BW-36 (Fab, V domains shown)
VH: QVQLVQSGAEVKKPGESLKISCKGSGYSFTSYWIGWVRQMPGKGLEWMGIIYPGDSDTRYSPSFQGQVTISADKSISTAYLQWSSLKASDTAMYYCARYRYPHMFDFWGQGTLVTVSS
VL: DIELTQPPSVSVAPGQTARISCSGDALGDKYASWYQQKPGQAPVLVIYDDSDRPSGIPERFSGSNSGNTATLTISGTQAEDEADYYCQSYDLRYSHVFGGGTKLTVLG
notes: Fab, FLAG + Strep-tag II; not tied by name
As for B1, the Kd – broadly, the free concentration of one partner at which half of the binding sites on the other are occupied at equilibrium, for simple one-to-one binding – with rat TIMP-1 [1] is about 42 nM. The “IC50 in rat protease assay” value in the experiment with rat TIMP-1 [2] is about 75 nM.

B2: MS-BW-19 (Fab, V domains shown)
VH: QVQLVQSGAEVKKPGESLKISCKGSGYSFTSYWIGWVRQMPGKGLEWMGIIYPGDSDTRYSPSFQGQVTISADKSISTAYLQWSSLKASDTAMYYCARYVTYGYDDYHFDYWGQGTLVTVSS
VL: DIALTQPASVSGSPGQSITISCTGTSSDVGGYNYVSWYQQHPGKAPKLMIYDVSNRPSGVSNRFSGSKSGNTASLTISGLQAEDEADYYCQSWDINHAIVFGGGTKLTVLG
notes: as for B1
B2 returned a dissociation constant Kd with rat TIMP-1 [1] of about 187 nM. Further, the “IC50 in rat protease assay” value with rat TIMP-1 [2] was over 300 nM.

B3: MS-BW-57 (Fab, V domains shown)
VH: QVQLVQSGAEVKKPGESLKISCKGSGYSFTSYWIGWVRQMPGKGLEWMGIIYPGDSDTRYSPSFQGQVTISADKSISTAYLQWSSLKASDTAMYYCARLYPEDLIYFDYWGQGTLVTVSS
VL: DIALTQPASVSGSPGQSITISCTGTSSDVGGYNYVSWYQQHPGKAPKLMIYDVSNRPSGVSNRFSGSKSGNTASLTISGLQAEDEADYYCQSWDVQTDKVFGGGTKLTVLG
notes: as for B1
B3 returned a Kd in the experiment with rat TIMP-1 [1] of about 39 nM. Besides, in the experiment with rat TIMP-1 [2], the “IC50 in rat protease assay” value is about 60 nM.

B4: MS-BW-20 (Fab, V domains shown)
VH: QVQLVQSGAEVKKPGSSVKVSCKASGGTFSSYAISWVRQAPGQGLEWMGGIIPIFGTANYAQKFQGRVTITADESTSTAYMELSSLRSEDTAVYYCARSGYLDYWGQGTLVTVSS
VL: DIALTQPASVSGSPGQSITISCTGTSSDVGGYNYVSWYQQHPGKAPKLMIYDVSNRPSGVSNRFSGSKSGNTASLTISGLQAEDEADYYCQSYDYYDYGVFGGGTKLTVLG
notes: as for B1
On to B4, for which the Kd with rat TIMP-1 [1] is about 70 nM. Also, the “IC50 in rat protease assay” value in the experiment with rat TIMP-1 [2] was over 300 nM.

B5: MS-BW-23 (Fab, V domains shown)
VH: QVQLVQSGAEVKKPGASVKVSCKASGYTFTSYYMHWVRQAPGQGLEWMGWINPNSGGTNYAQKFQGRVTMTRDTSISTAYMELSSLRSEDTAVYYCARIMWSDYGQLVKGGDIWGQGTLVTVSS
VL: DIALTQPASVSGSPGQSITISCTGTSSDVGGYNYVSWYQQHPGKAPKLMIYDVSNRPSGVSNRFSGSKSGNTASLTISGLQAEDEADYYCQSYDVFPINRVFGGGTKLTVLG
notes: as for B1
B5 registered a Kd with rat TIMP-1 [1] of about 207 nM. Also, the “IC50 in rat protease assay” value with rat TIMP-1 [2] was over 300 nM.

B6: MS-BW-55 (Fab, V domains shown)
VH: QVQLVQSGAEVKKPGSSVKVSCKASGGTFSSYAISWVRQAPGQGLEWMGWINPNSGGTNYAQKFQGRVTMTRDTSISTAYMELSSLRSEDTAVYYCARITYIGYDFWGQGTLVTVSS
VL: DIALTQPASVSGSPGQSITISCTGTSSDVGGYNYVSWYQQHPGKAPKLMIYDVSNRPSGVSNRFSGSKSGNTASLTISGLQAEDEADYYCQSRDLYYVYYVFGGGTKLTVLG
notes: as for B1
Turning to B6, in the experiment with rat TIMP-1 [1], the Kd was about 23 nM. In addition, the “IC50 in rat protease assay” value with rat TIMP-1 [2] is about 100 nM.

B7: MS-BW-32 (Fab, V domains shown)
VH: QVQLVQSGAEVKKPGSSVKVSCKASGGTFSSYAISWVRQAPGQGLEWMGGIIPIFGTANYAQKFQGRVTITADESTSTAYMELSSLRSEDTAVYYCARTKYVGSEDVWGQGTLVTVSS
VL: DIALTQPASVSGSPGQSITISCTGTSSDVGGYNYVSWYQQHPGKAPKLMIYDVSNRPSGVSNRFSGSKSGNTASLTISGLQAEDEADYYCQSYDFSHYFFVFGGGTKLTVLG
notes: as for B1
As to B7, in the experiment with rat TIMP-1 [1], the Kd was about 92 nM. Moreover, in the experiment with rat TIMP-1 [2], the “IC50 in rat protease assay” value was over 100 nM.

B8: MS-BW-56 (Fab, V domains shown)
VH: QVQLVQSGAEVKKPGSSVKVSCKASGGTFSSYAISWVRQAPGQGLEWMGGIIPIFGTANYAQKFQGRVTITADESTSTAYMELSSLRSEDTAVYYCARQEWYMDYWGQGTLVTVSS
VL: DIELTQPPSVSVAPGQTARISCSGDALGDKYASWYQQKPGQAPVLVIYDDSDRPSGIPERFSGSNSGNTATLTISGTQAEDEADYYCQSYDRSMWVFGGGTKLTVLG
notes: as for B1
The molecule B8 returned a Kd with rat TIMP-1 [1] of about 170 nM. For the same molecule, in the experiment with rat TIMP-1 [2], the “IC50 in rat protease assay” value was over 100 nM.

B9: MS-BW-18 (Fab, V domains shown)
VH: QVQLVQSGAEVKKPGESLKISCKGSGYSFTSYWIGWVRQMPGKGLEWMGIIYPGDSDTRYSPSFQGQVTISADKSISTAYLQWSSLKASDTAMYYCARLVGGGYDLMFDSWGQGTLVTVSS
VL: DIALTQPASVSGSPGQSITISCTGTSSDVGGYNYVSWYQQHPGKAPKLMIYDVSNRPSGVSNRFSGSKSGNTASLTISGLQAEDEADYYCQSYDDMQFVFGGGTKLTVLG
notes: as for B1
The molecule B9 returned a Kd with rat TIMP-1 [1] of about 153 nM. Besides, the “IC50 in rat protease assay” value in the experiment with rat TIMP-1 [2] was over 300 nM.

B10: MS-BW-30 (Fab, V domains shown)
VH: QVQLVQSGAEVKKPGESLKISCKGSGYSFTSYWIGWVRQMPGKGLEWMGIIYPGDSDTRYSPSFQGQVTISADKSISTAYLQWSSLKASDTAMYYCARYAGHQYEFFFDFWGQGTLVTVSS
VL: DIELTQPPSVSVAPGQTARISCSGDALGDKYASWYQQKPGQAPVLVIYDDSDRPSGIPERFSGSNSGNTATLTISGTQAEDEADYYCQSRDPVGFPVFGGGTKLTVLG
notes: as for B1
In the experiment with rat TIMP-1 [1], B10 registered a Kd of about 36 nM. Further, the “IC50 in rat protease assay” value in the experiment with rat TIMP-1 [2] was over 100 nM.

B11: MS-BW-22 (Fab, V domains shown)
VH: QVQLVQSGAEVKKPGESLKISCKGSGYSFTSYWIGWVRQMPGKGLEWMGIIYPGDSDTRYSPSFQGQVTISADKSISTAYLQWSSLKASDTAMYYCARFRAYGDDFYFDVWGQGTLVTVSS
VL: DIALTQPASVSGSPGQSITISCTGTSSDVGGYNYVSWYQQHPGKAPKLMIYDVSNRPSGVSNRFSGSKSGNTASLTISGLQAEDEADYYCQSWDNLKMPVVFGGGTKLTVLG
notes: as for B1
Regarding B11, in the experiment with rat TIMP-1 [1], the Kd turned out to be 35 nM. Further, the “IC50 in rat protease assay” value with rat TIMP-1 [2] is 65 nM.

B12: MS-BW-59 (Fab, V domains shown)
VH: QVQLVQSGAEVKKPGESLKISCKGSGYSFTSYWIGWVRQMPGKGLEWMGIIYPGDSDTRYSPSFQGQVTISADKSISTAYLQWSSLKASDTAMYYCARLRVHDYAMYFDLWGQGTLVTVSS
VL: DIALTQPASVSGSPGQSITISCTGTSSDVGGYNYVSWYQQHPGKAPKLMIYDVSNRPSGVSNRFSGSKSGNTASLTISGLQAEDEADYYCQSYDIMPERVFGGGTKLTVLG
notes: as for B1
With B12, the Kd with rat TIMP-1 [1] is about 15 nM. Also, the “IC50 in rat protease assay” value with rat TIMP-1 [2] was 30 nM.

B13: MS-BW-31 (Fab, V domains shown)
VH: QVQLVQSGAEVKKPGESLKISCKGSGYSFTSYWIGWVRQMPGKGLEWMGIIYPGDSDTRYSPSFQGQVTISADKSISTAYLQWSSLKASDTAMYYCARLYADADIYFDYWGQGTLVTVSS
VL: DIALTQPASVSGSPGQSITISCTGTSSDVGGYNYVSWYQQHPGKAPKLMIYDVSNRPSGVSNRFSGSKSGNTASLTISGLQAEDEADYYCQSYDLSPRVFGGGTKLTVLG
notes: as for B1
In the experiment with rat TIMP-1 [1], B13 showed a Kd of about 13 nM. Also, the “IC50 in rat protease assay” value in the experiment with rat TIMP-1 [2] was over 100 nM.

B14: MS-BW-37 (Fab, V domains shown)
VH: QVQLVQSGAEVKKPGESLKISCKGSGYSFTSYWIGWVRQMPGKGLEWMGIIYPGDSDTRYSPSFQGQVTISADKSISTAYLQWSSLKASDTAMYYCARLFAGLELYFDYWGQGTLVTVSS
VL: DIALTQPASVSGSPGQSITISCTGTSSDVGGYNYVSWYQQHPGKAPKLMIYDVSNRPSGVSNRFSGSKSGNTASLTISGLQAEDEADYYCQSYDLRNRVFGGGTKLTVLG
notes: as for B1
Molecule B14 yielded a Kd with rat TIMP-1 [1] of 10 nM. Moreover, in the experiment with rat TIMP-1 [2], the “IC50 in rat protease assay” value was over 100 nM.

B15: MS-BW-29 (Fab, V domains shown)
VH: QVQLVQSGAEVKKPGESLKISCKGSGYSFTSYWIGWVRQMPGKGLEWMGIIYPGDSDTRYSPSFQGQVTISADKSISTAYLQWSSLKASDTAMYYCARHDFDGSIFMDFWGQGTLVTVSS
VL: DIALTQPASVSGSPGQSITISCTGTSSDVGGYNYVSWYQQHPGKAPKLMIYDVSNRPSGVSNRFSGSKSGNTASLTISGLQAEDEADYYCQSYDVTPRVFGGGTKLTVLG
notes: as for B1
The molecule B15 gave a Kd with rat TIMP-1 [1] of about 214 nM. In addition, the “IC50 in rat protease assay” value with rat TIMP-1 [2] was over 100 nM.

B16: MS-BW-62 (Fab, V domains shown)
VH: QVQLVQSGAEVKKPGESLKISCKGSGYSFTSYWIGWVRQMPGKGLEWMGIIYPGDSDTRYSPSFQGQVTISADKSISTAYLQWSSLKASDTAMYYCARLFTYPFLYFDVWGQGTLVTVSS
VL: DIALTQPASVSGSPGQSITISCTGTSSDVGGYNYVSWYQQHPGKAPKLMIYDVSNRPSGVSNRFSGSKSGNTASLTISGLQAEDEADYYCQSDFPVMVFGGGTKLTVLG
notes: as for B1
Molecule B16 came in with a Kd with rat TIMP-1 [1] of about 36 nM. The “IC50 in rat protease assay” value in the experiment with rat TIMP-1 [2] was determined as 19 nM.

B17: MS-BW-24 (Fab, V domains shown)
VH: QVQLVQSGAEVKKPGESLKISCKGSGYSFTSYWIGWVRQMPGKGLEWMGIIYPGDSDTRYSPSFQGQVTISADKSISTAYLQWSSLKASDTAMYYCARYYVTDTAYFDYWGQGTLVTVSS
VL: DIALTQPASVSGSPGQSITISCTGTSSDVGGYNYVSWYQQHPGKAPKLMIYDVSNRPSGVSNRFSGSKSGNTASLTISGLQAEDEADYYCQSDLYFPVFGGGTKLTVLG
notes: as for B1
With B17, binding with rat TIMP-1 [1] was put at a Kd of 23 nM. Further, in the experiment with rat TIMP-1 [2], the “IC50 in rat protease assay” value stood at 20 nM.

B18: MS-BW-63 (Fab, V domains shown)
VH: QVQLVQSGAEVKKPGESLKISCKGSGYSFTSYWIGWVRQMPGKGLEWMGIIYPGDSDTRYSPSFQGQVTISADKSISTAYLQWSSLKASDTAMYYCARILTGHVLLFDYWGQGTLVTVSS
VL: DIALTQPASVSGSPGQSITISCTGTSSDVGGYNYVSWYQQHPGKAPKLMIYDVSNRPSGVSNRFSGSKSGNTASLTISGLQAEDEADYYCQSDNPYLVFGGGTKLTVLG
notes: as for B1
In the experiment with rat TIMP-1 [1], B18 yielded a Kd of about 14 nM. Further, the “IC50 in rat protease assay” value with rat TIMP-1 [2] came out at 20 nM.
